This is an account of results in article PMC3325216.

What all share (assay): ELISA; wt or alanine-mutant E2 from 293T lysate captured by GNA on microtiter plates, amount normalised by CBH-17 binding; CD81-LEL added at 20 µg/ml; bound CD81-LEL detected with anti-CD81; percent relative to wt
Experiment [1] has as its target H77C E1E2 mutant Y443A (hepatitis C virus genotype 1a, isolate H77C).
Experiment [2] has as its target H77C E1E2 mutant K446A (hepatitis C virus genotype 1a, isolate H77C).
Experiment [3] has as its target H77C E1E2 mutant N428A (hepatitis C virus genotype 1a, isolate H77C).

As for “CD81 large extracellular loop fused to glutathione S-transferase (from UniProt P60033 1-236) (domain or fragment)”, the results for the percent CD81 binding relative to wt in experiment [1], in experiment [2] and in experiment [3] were 20%, 83% and 10%, respectively.
